Source: PMC5548745, “Agonist-induced dimer dissociation as a macromolecular step in G protein-coupled receptor signaling” (Nature Communications, 2017)

What was measured:
FZD6–FZD6 dimer = assay: dynamic FCCS of V5-FZD6-mCherry/FZD6-GFP; assay type: cell-based, human; conditions: HEK293
Method: HEK293 cells were grown over-night in Lab-Tek eight-well chamber-glass bottom slides (Nunc, Thermo Scientific, Langensbold, Germany) coated with matrigel. Data were acquired in 10 s intervals. Collection intervals containing abnormal fluorescence peaks (presumably resulting from aggregates or ROIs where the overall fluorescence was decaying, putatively due to membrane movements) were discarded from the overall analysis. The total included measurements time ranged from 20 to 80 s per cell. Measurements were only undertaken on cells where the fluorescence was well localized to the cell surface membrane, as judged by visual inspection in the wide-field and confocal mode. Autofluorescence, as well as fluorescence from both GFP and mCherry in the intracellular region was negligible. The number of fluorescent receptors assessed in each experiment varied from 10–1000 receptors per µm^2 in each HEK293 cell.
Dynamic FCCS measurements of WNT-dependent dissociation and re-association of FZD (Fig. 5c–e) were performed on an FCS/FCCS-equipped Zeiss 780 confocal microscope (Zeiss, Jena, Germany). The instrument details were the same as those of the Confocor 3 described above, with the exception that 561 nm excitation was used for excitation of mCherry, that GFP emission was detected from 500 to 550 nm, and that mCherry emission was detected from 600 to 690 nm. Experiments on cells were performed as described above, with each measurement point consisting of 3–6 measurements of 10 s each. […]
Assuming that M is FZD6-GFP (green) and N is FZD6-mCherry (red) and that all FZD6 form dimers, then the probability of finding a green–red FZD6 dimer is pgr=2×M×N/(M+N)(M+N-1)≈2×M×N/M+N^2=(2cgg+cgr)(2crr+cgr)/2cgg+cgr+crr^2 , where c gg, c gr, and c rr are the corresponding concentrations of the only green FZD6 dimers, the red and green FZD6 dimers and the only red FZD6 dimers. […] From the experiments, we determine the concentrations for c gg, c gr and c rr and compare the concentrations c gr with the c′gr for each cell to get an estimation of how close the model is to experimental data: cgr/c′gr=2cgr×(cgg+cgr+crr)/((2cgg+cgr)(2crr+cgr)) Analysis of the dynamic FCCS measurements of WNT-dependent dissociation and re-association of FZD6: Auto-correlation and cross-correlation curves were analyzed as described above and the amplitudes G g(0)−1, G r(0)−1, and G cc(0)−1 from each of the more than 300 measurements of 10 s duration were estimated by fitting to theoretical models. […]
With the settings described above for detection of emission, the crosstalk from the GFP channel to the mCherry channel, defined as the intensity detected in the mCherry channel divided by the intensity detected in the GFP channel, I r/I g, for a cell expressing only FZD-GFP, was 0.051 or 5.1 %. […]

SNAP-FZD6 = SNAP-FZD6 internalization by confocal microscopy; assay type: cell-based; conditions: HEK293; WNT-5A 300 ng ml^−1, 15 min
Method: SNAP-FZD6 and SNAP-β2-AR were imaged in living cells using a Zeiss LSM710 equipped with a 40×, 1.2 NA C-Apochromat objective. The cell-impermeable SNAP substrate SNAP-Surface 549 (New England Biolabs) was added (1:1000, 15 min), washed twice in BE buffer and imaged using the 561 nm laser line. SNAP-FZD6 and SNAP-β2-AR were stimulated with 300 ng ml^−1 WNT-5A and 10 µM isoproterenol, respectively, and fluorescence was monitored over time.

[1] = representative cell, G cc normalized to green auto-correlation amplitude, WNT-5A

B1: WNT-5A: recombinant carrier-free WNT-5A (R&D Systems), agonist for FZDs (protein, UniProt P41221 62-380, looked up)
Protein Wnt-5a: IIGAQPLCSQLAGLSQGQKKLCHLYQDHMQYIGEGAKTGIKECQYQFRHRRWNCSTVDNTSVFGRVMQIGSRETAFTYAVSAAGVVNAMSRACREGELSTCGCSRAARPKDLPRDWLWGGCGDNIDYGYRFAKEFVDARERERIHAKGSYESARILMNLHNNEAGRRTVYNLADVACKCHGVSGSCSLKTCWLQLADFRKVGDALKEKYDSAAAMRLNSRGKLVQVNSRFNSPTTQDLVYIDPSPDYCVRNESTGSLGTQGRLCNKTSEGMDGCELMCCGRGYDQFKTVQTERCHCKFHWCCYVKCKKCTEIVDQFVCK
- FZD6–FZD6 interaction upon stimulation (FCCS) (FZD6–FZD6 dimer; WNT-5A 300 ng ml^−1): a transient decrease in FZD6–FZD6 interaction
- red molecules also green at maximal dimer dissociation (FZD6–FZD6 dimer; [1]): 6%
- red molecules also green upon dimer re-association (FZD6–FZD6 dimer; [1]): 21%
- internalization of SNAP-FZD6 (SNAP-FZD6): minimal internalization of SNAP-FZD6 was observed and this was not enhanced by the addition of recombinant WNT-5A
